Laboratory results as given in article PMC11310207 (Scientific Reports, 2024).
Square brackets hold non-standard residues; d marks the D form. Ends that are not written are not given here. * marks the point of attachment. Dnp = O=[N+]([O-])c1ccc(*)c([N+](=O)[O-])c1; Mca = COc1ccc2c(CC(=O)*)cc(=O)oc2c1

Assays:
[1] = molecular target: human neurolysin (hNln), Ser38-Pro704, N-terminal 6xHis-tag, used in the activity assays (human, UniProt Q9BYT8 38-704); test: enzyme inhibition
[2] = molecular target: rNln (Met37–Ser704), C-terminal 6xHis-tag, catalytically active (UniProt P42676 37-704); test: fluorescence polarisation

| Binder | binding result [1] | also measured |
| --- | --- | --- |
| YGGFLRRIRP [dynorphin A (1–10)] | binds | – |
| Mca-PLGP[dK](Dnp)-OH [Mca–Pro–Leu–Gly–Pro–D–Lys(DNP)–OH, quenched fluorogenic substrate of Nln] | binds | – |
| {FAM}-GGFLRRIRPKLK [FAM-GGFLRRIRPKLK, N-terminally FAM-labeled Dyn A (2–13)] | – | Kd [2]: 1470 nM |
| YGGFLRRIRPK [dynorphin A (1–11)] | binds | – |
| YGGFLRRIRPKL [dynorphin A (1–12)] | – | Ki [1]: 900 nM |
| YGGFLRR [dynorphin A (1–7)] | binds | – |
